Biological target: His6-MS2 coat protein (bacteriophage MS2) (UniProt P03612)
Test: SEC; Superose 6 (10/300 GL); supernatants of crude cell extracts of E. coli JM101 expression cultures; 50 mM Tris-HCl pH 7.5, 300 mM NaCl; with or without benzonase treatment; reference proteins 669, 400 and 29 kDa

## His6-MS2 coat protein (from UniProt P03612 1-130) (natural protein)
  stoichiometry N: 2

From article PMC3753655
